This series concerns the target Vps34 (vacuolar protein sorting 34), endogenous in MEF cell lysate (UniProt Q6PF93).

Sequence of Vps34 (vacuolar protein sorting 34), endogenous in MEF cell lysate (Q6PF93 whole entry): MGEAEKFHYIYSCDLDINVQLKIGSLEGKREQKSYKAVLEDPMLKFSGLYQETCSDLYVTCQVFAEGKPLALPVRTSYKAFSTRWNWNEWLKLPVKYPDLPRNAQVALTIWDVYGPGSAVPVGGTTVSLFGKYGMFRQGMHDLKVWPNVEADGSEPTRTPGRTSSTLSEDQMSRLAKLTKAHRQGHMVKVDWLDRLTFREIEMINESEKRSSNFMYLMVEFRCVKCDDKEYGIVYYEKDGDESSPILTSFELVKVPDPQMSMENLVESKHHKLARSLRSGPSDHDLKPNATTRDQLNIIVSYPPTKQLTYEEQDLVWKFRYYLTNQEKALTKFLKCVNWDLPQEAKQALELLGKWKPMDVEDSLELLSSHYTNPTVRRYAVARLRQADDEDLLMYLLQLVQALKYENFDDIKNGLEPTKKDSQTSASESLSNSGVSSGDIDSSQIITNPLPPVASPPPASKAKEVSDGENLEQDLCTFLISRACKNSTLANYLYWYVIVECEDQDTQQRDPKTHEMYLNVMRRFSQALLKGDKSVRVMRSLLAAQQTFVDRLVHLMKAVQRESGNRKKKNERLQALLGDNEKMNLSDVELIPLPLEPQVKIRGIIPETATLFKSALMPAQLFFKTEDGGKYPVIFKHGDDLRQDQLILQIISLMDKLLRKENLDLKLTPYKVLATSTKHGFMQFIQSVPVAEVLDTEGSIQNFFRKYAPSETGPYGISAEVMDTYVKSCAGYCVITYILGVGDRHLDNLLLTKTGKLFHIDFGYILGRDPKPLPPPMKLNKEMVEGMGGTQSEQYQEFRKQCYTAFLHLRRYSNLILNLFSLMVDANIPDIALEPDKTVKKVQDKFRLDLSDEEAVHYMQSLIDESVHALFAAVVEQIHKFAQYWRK
Sequence of purified GST-LRS protein (chain, as listed by the source): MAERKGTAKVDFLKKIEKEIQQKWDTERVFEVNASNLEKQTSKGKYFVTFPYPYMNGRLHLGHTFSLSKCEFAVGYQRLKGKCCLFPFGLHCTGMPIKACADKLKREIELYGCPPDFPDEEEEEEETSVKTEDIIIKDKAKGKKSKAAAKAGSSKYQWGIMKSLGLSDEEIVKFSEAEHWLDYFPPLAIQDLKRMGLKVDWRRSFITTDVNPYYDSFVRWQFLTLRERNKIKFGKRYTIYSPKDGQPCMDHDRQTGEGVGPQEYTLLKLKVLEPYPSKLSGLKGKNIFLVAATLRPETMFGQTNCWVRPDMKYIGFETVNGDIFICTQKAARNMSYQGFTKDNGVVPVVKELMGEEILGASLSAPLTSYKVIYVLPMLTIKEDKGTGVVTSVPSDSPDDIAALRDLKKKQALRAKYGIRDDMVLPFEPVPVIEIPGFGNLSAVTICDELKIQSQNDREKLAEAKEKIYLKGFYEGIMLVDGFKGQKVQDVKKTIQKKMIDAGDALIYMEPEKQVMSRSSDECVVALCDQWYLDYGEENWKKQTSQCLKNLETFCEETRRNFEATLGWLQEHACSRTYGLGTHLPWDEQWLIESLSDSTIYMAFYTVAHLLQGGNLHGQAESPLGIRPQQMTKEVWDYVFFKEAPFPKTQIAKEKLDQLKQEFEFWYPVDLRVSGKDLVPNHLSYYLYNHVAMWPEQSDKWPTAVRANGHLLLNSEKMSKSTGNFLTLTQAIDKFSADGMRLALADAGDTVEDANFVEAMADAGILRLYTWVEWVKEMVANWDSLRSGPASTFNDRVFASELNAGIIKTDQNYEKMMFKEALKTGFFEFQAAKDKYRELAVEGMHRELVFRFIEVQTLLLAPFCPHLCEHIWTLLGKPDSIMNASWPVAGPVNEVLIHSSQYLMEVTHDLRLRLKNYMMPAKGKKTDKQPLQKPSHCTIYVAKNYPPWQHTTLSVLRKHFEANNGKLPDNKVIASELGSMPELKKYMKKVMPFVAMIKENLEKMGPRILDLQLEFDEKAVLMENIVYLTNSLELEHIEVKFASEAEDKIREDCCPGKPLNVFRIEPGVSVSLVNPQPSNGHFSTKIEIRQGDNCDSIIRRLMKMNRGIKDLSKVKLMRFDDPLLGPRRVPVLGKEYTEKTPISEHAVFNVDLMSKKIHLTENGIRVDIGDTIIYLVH
Sequence of GST-LRS mutation (F50A/Y52A) (chain, as listed by the source F50A Y52A): as the sequence (chain, as listed by the source) above, with F50A, Y52A counted along it

Consider GST-LRS mutation (F50A/Y52A), for which the “activity of Vps34 (in vitro Vps34 lipid kinase assay)” value was “LRS mutation (F50A/Y52A) did not induce the activation of Vps34, regardless of the presence or absence of leucine stimulation”.
Regarding purified GST-LRS protein, the “activity of Vps34 (in vitro Vps34 lipid kinase assay)” value is given as “the activity of Vps34 was increased by about 3 times compared to the GST control” and the “activity of Vps34 (in vitro Vps34 lipid kinase assay), with leucine” value was “the activity was further increased by leucine stimulation”.

The values are drawn from patent US20200155655.
